Measured values taken from patent publication US6881827B2, “Molecular cloning of a 7TM receptor (AXOR34) and screening methods thereof” (SmithKline Beecham Corporation, priority 1999, dated 2005).

molecular target: T1, AXOR34 (Homo sapiens, UniProt Q9GZQ4); assay: FLIPR calcium mobilization assay in HEK-293 cells transiently transfected with AXOR34; assay type: cell-based; conditions: ligand concentrations 1 μM-0.1 nM
T1 construct: expressed in transfected cells; host or cells: HEK-293 cells, transient transfection (pCDN vector as the empty-vector control)
Source text: There was no concentration-dependent activity for pCDNs or untransfected cells.

T1 sequence (Q9GZQ4 whole entry): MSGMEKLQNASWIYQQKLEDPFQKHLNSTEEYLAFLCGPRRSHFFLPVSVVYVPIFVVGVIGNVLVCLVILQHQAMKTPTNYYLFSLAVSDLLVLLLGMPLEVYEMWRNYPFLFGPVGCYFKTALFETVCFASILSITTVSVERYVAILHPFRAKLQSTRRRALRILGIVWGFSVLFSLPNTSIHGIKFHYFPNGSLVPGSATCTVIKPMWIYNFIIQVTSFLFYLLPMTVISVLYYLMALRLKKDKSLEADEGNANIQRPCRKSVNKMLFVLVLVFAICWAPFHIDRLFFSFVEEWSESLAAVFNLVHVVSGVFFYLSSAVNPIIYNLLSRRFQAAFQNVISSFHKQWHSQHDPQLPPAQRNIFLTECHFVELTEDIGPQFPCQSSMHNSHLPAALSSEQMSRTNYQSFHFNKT

Calcium mobilization response, robust calcium mobilization responses:
porcine Neuromedin U-8 [porcine NmU-8]
porcine Neuromedin U-25 (FLVDEEFQGPIVSQNRRYFLFRPRN; HOMO SAPIENS) [porcine NmU-25]
rat Neuromedin U-23 (YKVNEYQGPVAPSGGFFLFRPRN; HOMO SAPIENS) [rat NmU-23]
